From article doi:10.1101/580944 (bioRxiv, 2019)
Like-named read-outs stand apart in the source and are kept apart here.

Experiments:
[1] = biological target: T1, FtsZ (E. coli (by the printed UniProt entry; not said in words for the construct)); assay: FRAP
[2] = biological target: T1, FtsZ (E. coli); assay: single molecule tracking
[3] = biological target: T1, FtsZ (E. coli); assay: single molecule tracking; remark: listed apart in the source
[4] = biological target: the molecule itself; assay: SEC

FtsZ (natural protein)
FRAP recovery half-time (at 6.0 μM ZapA) [1]: 6.66 s | FRAP recovery half-time (in the absence of ZapA) [1]: 7.63 s | lifetime of single FtsZ monomers in the filaments (with ZapA) [2]: 6.01 s | lifetime of single FtsZ monomers in the filaments (without ZapA) [2]: 6.59 s

ZapA-Cy5 (natural protein)
FRAP recovery half-time [1]: 3.01 s | lifetime of single molecules on FtsZ filaments [3]: 0.95 | lifetime of single molecules on FtsZ filaments [2]: 0.94 s

B1: ZapA (natural protein, UniProt P0ADS2 1-109, looked up)
chain: MSAQPVDIQIFGRSLRVNCPPDQRDALNQAADDLNQRLQDLKERTRVTNTEQLVFIAALNISYELAQEKAKTRDYAASMEQRIRMLQQTIEQALLEQGRITEKTNQNFE
binding result [4]: binds
